Four molecules from patent publication US20060088908A1 (Pieris, published 2006) can be followed below.

First the molecules themselves.
T1: recombinant human cytokine interleukin-8 (Promocell) (human, UniProt P10145 23-99, biotin groups on lysine residues (NHS-SS-Biotin) in the ELISA; digoxigenin groups (DIG-NHS) in the colony screening)
T1 construct: also called IL-8
T1 sequence: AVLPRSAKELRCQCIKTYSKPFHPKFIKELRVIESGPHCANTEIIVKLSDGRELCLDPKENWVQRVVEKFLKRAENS

B1: biotinylated synthetic thrombospondin peptide from the cell binding domain of human Thrombospondin1 (peptide)
peptide: RFYVVMWKXXK
modifications: Aca-Aca (amino caproic acid) after Lys8; C-terminal Lys-Biotin
notes: Immobilised through its C-terminal biotin on avidin (ELISA) or streptavidin chip (SPR)
B2: hNGAL mutein N4 with C-terminal Strep-Tag II (phNGAL15 derivative, purified) (designed binder, not shown: small tags and cut ends)
chain: QDSTSDLIPAPPLSKVPLQQNFQDNQFQGKWYLVGLAGNDIYRADSLPGLMYATIYELKEDKSYNVTSVVFYDKKCVYSIRTFVPGSQPGEFTLGNIKSYEAVTSFLVRVVSTNYNQHAMVFFKDVRPNSEEFKITIYGRTKELPSELKENFIRFSKSLGLPENHIVFPVPIDQCIDG
B3: hNGAL mutein RFY-E with C-terminal Strep-Tag II (phNGAL15 derivative, purified) (designed binder, not shown: small tags and cut ends)
chain: QDSTSDLIPAPPLSKVPLQQNFQDNQFQGKWYLVGLAGNGITRVDTLPSRMYATIYELKEDKSYNVTSVPFMGKKCKYKIRTFVPGSQPGEFTLGNIKSYMSNTSFLVRVVSTNYNQHAMVFFKQVHKNPESFKITIYGRTKELPSELKENFIRFSKSLGLPENHIVFPVPIDQCIDG
B4: hNGAL mutein RFY-C with C-terminal Strep-Tag II (phNGAL15 derivative, purified) (designed binder, not shown: small tags and cut ends)
chain: QDSTSDLIPAPPLSKVPLQQNFQDNQFQGKWYLVGLAGNGIHRLDNVPPNMYATIYELKEDKSYNVTSVDFLMKKCPYFIRTFVPGSQPGEFTLGNIKSYPFLTSFLVRVVSTNYNQHAMVFFKNVPRNYEEFKITIYGRTKELPSELKENFIRFSKSLGLPENHIVFPVPIDQCIDG

Assay [1] addresses T2, original hNGAL with C-terminal Strep-Tag II (encoded by phNGAL15, purified) (human, UniProt P80188 21-198).
T2 construct: mature
In words: ELISA: biotinylated thrombospondin peptide on avidin-coated wells, hNGAL titrated, anti-strepII-antibody-HRP detection, A450. The method, then:
For the detection of binding in an ELISA (Enzyme-linked Immunosorbent Assay) the wells of a microtiter plate (Maxisorb, Nunc) were filled each with 50 μl of a 50 μg/ml solution of Avidin (Fluka) in PBS and were incubated over night at room temperature (RT). After washing three times with PBST, 50 μl of a 1 μM solution of the biotinylated thrombospondin peptide SEQ ID NO:18 in PBST were filled into the wells and the peptide was immobilized via complex formation between biotin and the preadsorbed avidin. After incubation for one hour the solution was removed and the wells of the microtiter plate were washed three times with PBST. In order to saturate unspecific binding sites, the wells were filled with 100 μl of 4% w/v BSA in PBST and incubated for one hour at RT, followed by three times washing with PBST. […]
Detection of bound hNGAL muteins was accomplished using 3,3′,5,5′-tetramethylbenzidine and H₂O₂ as substrates for horseradish-peroxidase. For this purpose, 100 μl of a ready-to-use HRP-substrate solution (Biochem Immunosystems) was filled into the wells and the colour development was stopped after a few minutes by adding 100 μl of 0.3 M sulphuric acid. Product formation was measured via the endpoint absorption at 450 nm in a SpectraMax 250 photometer (Molecular Devices).

The target in assay [2] is T1, recombinant human cytokine …. In words: ELISA, apparent KD, biotinylated IL-8 on avidin-coated plate, anti-strepII-antibody-HRP. The method, then:
(§1) For the detection of binding in an ELISA experiment two rows (12 wells each) of a 96 microtiter plate (Maxisorb, Nunc) were coated with 50 μl of a 50 μg/ml solution of Avidin (Fluka) in PBS overnight at 4° C. After washing three times with PBST, one row was treated with 50 μl/well of a 1 μM solution of biotinylated IL-8 in PBST, whereas the second row was incubated with PBST as a control. After 1 hour at RT, all wells were washed three times with PBST and unspecific binding sites were saturated with 100 μl of 4% w/v skimmed milk powder in PBST for 1 hour at RT.
(§2) As a control for unspecific binding to avidin, a similar dilution series of the mutein N4 was applied to wells where the IL-8 had been omitted. Complex formation was allowed for 1 hour at RT, followed by three washes with PBST and incubation at RT for 1 hour with anti-strepII-antibody-HRP-conjugate (IBA) diluted 1:8000 in PBST.
(§3) Detection of bound mutein N4 was accomplished using 3,3′,5,5′-tetramethylbenzidine and H₂O₂ as substrates for horseradish-peroxidase. For this purpose, all wells were filled with 100 μl of a ready-to-use HRP-substrate solution (Biochem Immunosystems). The colour development was stopped after a few minutes by adding 100 μl of 0.3 M sulphuric acid. Product formation was measured via endpoint absorption at 450 nm in a SpectraMax 250 photometer (Molecular Devices).

The next assay deals with Avidin (Fluka) (UniProt P02701 25-152). In words: ELISA control without IL-8: avidin-coated wells only, mutein N4 titrated, anti-strepII-antibody-HRP detection, OD450. The method, then:
as §1, §2, §3

The target of assay [3] is streptavidin of the streptavidin-coated sensor chip SA (BIACORE) (UniProt P22629 37-163, limits assumed). Put plainly: SPR, BIAcore X, streptavidin-coated sensor chip SA.
Assay [4] concerns the target B1. In words: SPR, BIAcore X, steady state, biotinylated peptide on sensor chip SA. The method, then: The binding affinity of the hNGAL muteins to the thrombospondin peptide SEQ ID NO: 18 was determined by surface plasmon resonance (SPR) using the BIAcore X system (BIACORE). First 35 μl of the biotinylated thrombospondin peptide at a concentration of 1 μg/ml (prepared by mixing 1 μl of a 200 μg/ml peptide solution in DMF with 199 μl HBS buffer containing 150 mM NaCl, 10 mM HEPES pH 7.4, 3 mM EDTA) was immobilized to the surface of one flow channel of a streptavidin-coated sensor chip SA (BIACORE) according to the instructions of the manufacturer, resulting in an amount of ca. 400 response units (RU). Binding curves of the hNGAL muteins were then measured by applying 35 μl of each purified muteins from Example 9 in HBS buffer at concentrations between 500 nM and 25 nM using HBS-EP (HBS containing 0.005% Surfactant P20) as a running buffer and a continuous flowrate of 5 μl/min.
Steady state resonance values were measured at the end of the injection phase for the channel with the immobilized thrombospondin peptide for each protein concentration applied. Only negligible buffer effects were detected in the second channel of the sensor chip, which served as a control. These values were directly plotted against the concentration of the hNGAL mutein. […]

Assay [5] deals with B1. In words: ELISA, apparent KD, biotinylated peptide on avidin-coated plate, anti-strepII-antibody-HRP. The method, then: For the detection of binding in an ELISA (Enzyme-linked Immunosorbent Assay) the wells of a microtiter plate (Maxisorb, Nunc) were filled each with 50 μl of a 50 μg/ml solution of Avidin (Fluka) in PBS and were incubated over night at room temperature (RT). After washing three times with PBST, 50 μl of a 1 μM solution of the biotinylated thrombospondin peptide SEQ ID NO:18 in PBST were filled into the wells and the peptide was immobilized via complex formation between biotin and the preadsorbed avidin. After incubation for one hour the solution was removed and the wells of the microtiter plate were washed three times with PBST. In order to saturate unspecific binding sites, the wells were filled with 100 μl of 4% w/v BSA in PBST and incubated for one hour at RT, followed by three times washing with PBST.
Then a dilution series of the muteins from Example 9 was prepared, starting from 100 nM concentration, and followed by 1 hour incubation at RT. As a control for unspecific binding to avidin, a similar dilution series of hNGAL and its muteins was applied to wells where the thrombospondin peptide had been omitted. After washing three times with PBST, Anti-strepII-antibody-HRP-conjugate (IBA), diluted 1:8000 with PBST, was applied to the wells. Incubation was performed for 1 hour at RT and followed by washing three times with PBST and twice with PBS. […]

Sequence of streptavidin of the streptavidin-coated sensor chip SA (BIACORE) (P22629 37-163 limits assumed): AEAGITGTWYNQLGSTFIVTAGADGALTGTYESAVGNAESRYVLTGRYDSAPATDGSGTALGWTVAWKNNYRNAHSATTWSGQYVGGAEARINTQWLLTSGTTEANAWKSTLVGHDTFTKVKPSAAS
Sequence of Avidin (Fluka) (P02701 25-152 limits assumed): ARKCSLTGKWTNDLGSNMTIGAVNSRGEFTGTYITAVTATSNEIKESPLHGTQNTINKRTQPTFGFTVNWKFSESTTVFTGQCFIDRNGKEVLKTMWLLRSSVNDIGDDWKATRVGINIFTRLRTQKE

For the molecule B1, the binding result in assay [1] is “no binding (tested: 200 nM)”.

For B2, the Kd in assay [2] was found to be 300 nM. In addition, in the assay with Avidin (Fluka), the binding result is listed as “no binding (tested: 1000 nM)”.

As to B3, in assay [3], the binding result is recorded as “no binding”. The Kd is 107 nM in assay [4] and 8.2 nM in assay [5].

On to B4, for which the binding result in assay [3] is “no binding”. Besides, the Kd was 106 nM in assay [4] and 4.6 nM in assay [5].
